Assays:
[1] = target: EutSMNLK (recombinant shell of EutS, EutM, EutN, EutL and EutK) (Salmonella enterica LT2) (UniProt Q9ZFV7); test: cell-based or functional assay
[2] = target: EutS (recombinant EutS shell/compartment) (Salmonella enterica LT2) (UniProt Q9ZFV7); test: cell-based or functional assay
[3] = target: EutMNLK (EutM, EutN, EutL and EutK co-expressed without EutS) (Salmonella enterica LT2); test: cell-based or functional assay
[4] = target: EutS-G39V mutant (Salmonella enterica LT2); test: cell-based or functional assay
[5] = test system: EutS (recombinant EutS shell/compartment)

Substance	% cells with green flourescent foci (E. coli C2566) [1]	% cells with green flourescent foci (E. coli JM109) [1]	% cells with green flourescent foci (E. coli C2566) [2]	% cells with green flourescent foci (E. coli JM109) [2]	% cells with green flourescent foci (E. coli C2566) [3]	% cells with green flourescent foci (E. coli JM109) [3]	% cells with green flourescent foci (E. coli C2566) [4]	% cells with green flourescent foci (E. coli JM109) [4]	fluorescent localization in E. coli [5]
EutC^1-19-EGFP	84%	79%	87%	84%	–	–	–	–	–
Enhanced Green Fluorescent Protein (EGFP)	0.2%	1.8%	0.5%	0.6%	0.1%	0.8%	0.3%	2.9%	–
EutC^1-19-BTL-2 fused to EGFP (modular cassette)	–	–	–	–	–	–	–	–	Upon co-expression of EutS, the majority of the tagged lipase localizes to a compartment formed somewhat off-center in E. coli

From US20140295520A1
